B1: Mitochondrial intermembrane space import and assembly protein 40 (Saccharomyces cerevisiae), P36046 (parent)
chain: MLRNLVVRNACRNRPSIQVARGLCRHQTRRLMASSPQFGRNSNQEKTAGFIMGILSMAGALYFIAPNRKPLFASRKVESDKTAEEELSSGGEQSPENEDDNNSKSDENGDDNDSKNDETEAGPQLGGDKIGASKVAEDGELVVLAEEDNKSSEDKDTDESKVSTKDDEQSNEDNATANNQKDENISSENSEENTSDKTLDNNAGSSEKKDPEHSDDEKSQQGQSDDKTTTEDNNGEEESSKKTVSDSENSAKQSESSDEEKEELRKQEEKQMGPTEEEVQHEGAYNPDTGEINWDCPCLGGMAHGPCGEEFKSAFSCFVYSEAEPKGIDCVEKFQHMQDCFRKYPEHYAEQLKETSDDEEPQDKVKVNTIESAPNVSSAKENAAKKAEQSDVKKEPLNEESKP
partner: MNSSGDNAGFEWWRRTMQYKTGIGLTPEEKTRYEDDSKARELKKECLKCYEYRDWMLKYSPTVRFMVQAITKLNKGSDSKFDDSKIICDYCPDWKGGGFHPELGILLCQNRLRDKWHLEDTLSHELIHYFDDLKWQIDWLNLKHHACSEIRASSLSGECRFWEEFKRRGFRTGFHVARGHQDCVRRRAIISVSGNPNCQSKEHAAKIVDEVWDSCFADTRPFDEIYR

Variants of: B1
Settings: with atp23_yeast ATP23, P53722

| effect of a mutation on the interaction | Variant |
| --- | --- |
| decreasing interaction | MLRNLVVRNACRNRPSIQVARGLCRHQTRRLMASSPQFGRNSNQEKTAGFIMGILSMAGALYFIAPNRKPLFASRKVESDKTAEEELSSGGEQSPENEDDNNSKSDENGDDNDSKNDETEAGPQLGGDKIGASKVAEDGELVVLAEEDNKSSEDKDTDESKVSTKDDEQSNEDNATANNQKDENISSENSEENTSDKTLDNNAGSSEKKDPEHSDDEKSQQGQSDDKTTTEDNNGEEESSKKTVSDSENSAKQSESSDEEKEELRKQEEKQMGPTEEEVQHEGAYNPDTGEINWDCPCLGGMAHGPCGEEFKSAFSCEVYSEAEPKGIDCVEKFQHMQDCFRKYPEHYAEQLKETSDDEEPQDKVKVNTIESAPNVSSAKENAAKKAEQSDVKKEPLNEESKP [F318E] |
| decreasing interaction | MLRNLVVRNACRNRPSIQVARGLCRHQTRRLMASSPQFGRNSNQEKTAGFIMGILSMAGALYFIAPNRKPLFASRKVESDKTAEEELSSGGEQSPENEDDNNSKSDENGDDNDSKNDETEAGPQLGGDKIGASKVAEDGELVVLAEEDNKSSEDKDTDESKVSTKDDEQSNEDNATANNQKDENISSENSEENTSDKTLDNNAGSSEKKDPEHSDDEKSQQGQSDDKTTTEDNNGEEESSKKTVSDSENSAKQSESSDEEKEELRKQEEKQMGPTEEEVQHEGAYNPDTGEINWDCPCLGGMAHGPCGEEFKSAESCFVYSEAEPKGIDCVEKFQHMQDCFRKYPEHYAEQLKETSDDEEPQDKVKVNTIESAPNVSSAKENAAKKAEQSDVKKEPLNEESKP [F315E] |
